Results: publication PMC1796551, “Breast cancer metastasis suppressor 1 (BRMS1) inhibits osteopontin transcription by abrogating NF-κB activation”

B1: OPN/NF-kB (dsDNA)
DNA 1: GAATTTCATGGGGAAGTCCAAATTCTAAG
DNA 2: CTTAGAATTTGGACTTCCCCATGAAATTC
B2: Mut OPN/NF-kB (dsDNA)
DNA 1: GAATTTCATGCGGACTTCGAAATTCTAAG
DNA 2: CTTAGAATTTCGAAGTCCGCATGAAATTC

Experiments:
Settings in all cases: protein: commercial; chain copies: 2; label: biotin; only one strand given
p50 = p50 (Homo sapiens, UniProt P19838 1-433); assay: EMSA; 10 mM Tris, 50 mM KCl, 1 mM DTT, 5 mM MgCl2, 1 ug poly(dI-dC), 20 fmol biotinylated probe, 100 ng p65 or 66 ng p50, room temperature 30 min; pH not stated
p65 (RelA) [1] = molecular target: T1, p65 (RelA) (Homo sapiens, UniProt Q04206 1-551); assay: EMSA; supershift with anti-p65 (lane 6); 10 mM Tris, 50 mM KCl, 1 mM DTT, 5 mM MgCl2, 1 ug poly(dI-dC), 20 fmol biotinylated probe, 100 ng p65 or 66 ng p50, room temperature 30 min; pH not stated
p65 (RelA) [2] = molecular target: T1, p65 (RelA); assay: EMSA; 10 mM Tris, 50 mM KCl, 1 mM DTT, 5 mM MgCl2, 1 ug poly(dI-dC), 20 fmol biotinylated probe, 100 ng p65 or 66 ng p50, room temperature 30 min; pH not stated

T1 sequence (Q04206 whole entry): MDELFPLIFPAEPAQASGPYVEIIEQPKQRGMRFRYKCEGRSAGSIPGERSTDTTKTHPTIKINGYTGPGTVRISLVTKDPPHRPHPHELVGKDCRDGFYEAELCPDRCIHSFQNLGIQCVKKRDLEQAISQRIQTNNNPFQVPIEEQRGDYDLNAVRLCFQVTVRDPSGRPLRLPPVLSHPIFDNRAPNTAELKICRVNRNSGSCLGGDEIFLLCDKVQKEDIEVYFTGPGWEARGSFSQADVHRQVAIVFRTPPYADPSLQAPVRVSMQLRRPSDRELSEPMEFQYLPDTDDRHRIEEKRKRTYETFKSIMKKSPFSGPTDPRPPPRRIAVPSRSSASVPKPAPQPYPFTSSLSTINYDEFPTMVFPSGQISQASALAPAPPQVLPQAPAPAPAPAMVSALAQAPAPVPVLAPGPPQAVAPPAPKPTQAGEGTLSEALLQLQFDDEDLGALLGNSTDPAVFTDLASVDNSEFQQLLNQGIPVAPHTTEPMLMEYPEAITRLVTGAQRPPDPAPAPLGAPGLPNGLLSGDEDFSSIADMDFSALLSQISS
Sequence of p50 (P19838 1-433): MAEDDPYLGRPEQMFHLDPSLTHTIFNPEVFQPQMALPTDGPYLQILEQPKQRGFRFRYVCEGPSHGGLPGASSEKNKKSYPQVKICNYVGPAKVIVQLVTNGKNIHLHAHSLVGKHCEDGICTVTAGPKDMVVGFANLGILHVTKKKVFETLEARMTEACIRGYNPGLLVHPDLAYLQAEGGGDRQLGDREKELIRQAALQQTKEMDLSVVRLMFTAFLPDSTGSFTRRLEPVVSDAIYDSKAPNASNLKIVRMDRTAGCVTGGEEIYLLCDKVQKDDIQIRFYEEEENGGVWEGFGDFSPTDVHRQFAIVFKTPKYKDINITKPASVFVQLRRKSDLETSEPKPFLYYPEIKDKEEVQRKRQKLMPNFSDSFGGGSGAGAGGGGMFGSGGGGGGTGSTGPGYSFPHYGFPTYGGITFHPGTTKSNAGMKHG

Binder | binding result (p50) | binding result (p65 (RelA) [1]) | binding result (p65 (RelA) [2])
B1 | binds | binds | 
B2 | no binding |  | no binding
